One molecule from patent US20170349646A1 can be followed below.

The assay addresses recombinant nucleoprotein derived from influenza virus subtype A H1N1 (Sino Biological, 40205-[change]) (influenza virus subtype A H1N1).

B1: VHH antibody consisting of the amino acid sequence represented by SEQ ID NO: 08 (VHH)
VHH: EVQLVESGGGLVQAGDSLRLSCAASGRTFINLDMGWFRQPPGKEREYVAAITRNGAITSYADSAKGRFTISRDNAKNTVSLEMNSLKPEDTGVYYCAAYSISNYGSGWYKPDYWGQGAQVTVSS
As to B1, the EC50 (read off the curve) was found to be 0.2 µg/mL.

As a reminder, the EC50 (read off the curve) is the concentration needed to bring the measured effect to its halfway point.
